Data reported in paper PMC4287450, “PRDM9 Drives Evolutionary Erosion of Hotspots in Mus musculus through Haplotype-Specific Initiation of Meiotic Recombination”.

B1: chr1_158 oligo 1 (dsDNA)
DNA 1: CGTCTGCTCTCTGTAGGAAGTGCTCCATGGACAGTAGCTTCTGCCTTTCCTT
DNA 2: AAGGAAAGGCAGAAGCTACTGTCCATGGAGCACTTCCTACAGAGAGCAGACG
B2: chr1_185 oligo 1 (dsDNA)
DNA 1: TCCCAGGACTATGAGTTTAGAGAGAAAAAAAACTAAAGTTACAGTAGCTTCATGTTG
DNA 2: CAACATGAAGCTACTGTAACTTTAGTTTTTTTTCTCTCTAAACTCATAGTCCTGGGA
B3: chr1_185 oligo 2 (dsDNA)
DNA 1: AGAGAGAAAAAAAACTAAAGTTACAGTAGCTTCATGTTGTAGATGGGTATATACCGCT
DNA 2: AGCGGTATATACCCATCTACAACATGAAGCTACTGTAACTTTAGTTTTTTTTCTCTCT

Molecular target: PRDM9Dom2 (Mus musculus domesticus (B6 allele), UniProt Q96EQ9 513-843)
Assay: competition; 20x unlabeled vs labeled CAST DNA; EMSA as in Billings et al. 2013 (buffer, pH, temperature not given); unlabeled competitor dsDNA at 20x labeled DNA
Details: protein: recombinant; blunt

Sequence of PRDM9Dom2 (Q96EQ9 513-843): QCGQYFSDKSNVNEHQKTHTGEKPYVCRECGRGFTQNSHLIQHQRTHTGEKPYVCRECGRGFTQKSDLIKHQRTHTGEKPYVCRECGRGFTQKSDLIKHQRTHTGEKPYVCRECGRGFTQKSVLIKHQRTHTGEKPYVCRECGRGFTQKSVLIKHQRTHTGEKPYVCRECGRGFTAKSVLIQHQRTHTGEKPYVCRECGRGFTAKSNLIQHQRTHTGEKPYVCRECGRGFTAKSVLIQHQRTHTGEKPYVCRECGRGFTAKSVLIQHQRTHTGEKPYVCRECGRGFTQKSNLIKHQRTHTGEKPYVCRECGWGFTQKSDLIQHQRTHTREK

| Binder | binding result |
| --- | --- |
| B1 | binds |
| B2 | binds |
| B3 | binds |
